Results on four variants are retold here after PMC10139993.

First the molecules themselves.
B1: Fused in sarcoma (FUS) wildtype with N-terminal GFP tag [not stated] / itself (parent)
chain: MASNDYTQQATQSYGAYPTQPGQGYSQQSSQPYGQQSYSGYSQSTDTSGYGQSSYSSYGQSQNTGYGTQSTPQGYGSTGGYGSSQSSQSSYGQQSSYPGYGQQPAPSSTSGSYGSSSQSSSYGQPQSGSYSQQPSYGGQQQSYGQQQSYNPPQGYGQQNQYNSSSGGGGGGGGGGNYGQDQSSMSSGGGSGGGYGNQDQSGGGGSGGYGQQDRGGRGRGGSGGGGGGGGGGYNRSSGGYEPRGRGGGRGGRGGMGGSDRGGFNKFGGPRDQGSRHDSEQDNSDNNTIFVQGLGENVTIESVADYFKQIGIIKTNKKTGQPMINLYTDRETGKLKGEATVSFDDPPSAKAAIDWFDGKEFSGNPIKVSFATRRADFNRGGGNGRGGRGRGGPMGRGGYGGGGSGGGGRGGFPSGGGGGGGQQRAGDWKCPNPTCENMNFSWRNECNQCKAPKPDGPGGGPGGSHMGGNYGDDRRGGRGGYDRGGYRGRGGDRGGFRGGRGGGDRGGFGPGKMDSRGEHRQDRRERPY

Variants of B1 are the subject of this experiment. As to the kind of experiment: SiMPull photobleaching step analysis. The following applies: with itself, read off a plot.

Consider chain 1 G156E, for which the photobleaching steps runs as follows: (0.4M sorbitol 4 hr) 2 steps; (no stress) 1.6 steps; (without stress) 1.6 steps.
Take chain 1 R244C: the photobleaching steps came to 2.1 steps (0.4M sorbitol 4 hr), 2.1 steps (no stress) and 2.1 steps (without stress).
As to chain 1 G187S, the photobleaching steps (0.4M sorbitol 4 hr) is 2.5 steps.
In the case of chain 1 R216C, the photobleaching steps runs as follows: (0.4M sorbitol 4 hr) 2.2 steps; (no stress) 2.2 steps; (without stress) 2.2 steps.
